This is an account of results in US20230125301A1 (published 2023).

Experiment [1] addresses T1, human PD-L1 (human, UniProt Q9NZQ7 19-290). As to the kind of experiment: FACS binding, CHO-K1 cells. On the technique in general: A flow cytometer gives signals particle by particle.
The target in experiment [2] is T1, human PD-L1. Put plainly: FACS binding, CHO-K1 cells. This is another data set of the same source.

Like-named read-outs stand apart in the source and are kept apart here.

T1 sequence (Q9NZQ7 19-290): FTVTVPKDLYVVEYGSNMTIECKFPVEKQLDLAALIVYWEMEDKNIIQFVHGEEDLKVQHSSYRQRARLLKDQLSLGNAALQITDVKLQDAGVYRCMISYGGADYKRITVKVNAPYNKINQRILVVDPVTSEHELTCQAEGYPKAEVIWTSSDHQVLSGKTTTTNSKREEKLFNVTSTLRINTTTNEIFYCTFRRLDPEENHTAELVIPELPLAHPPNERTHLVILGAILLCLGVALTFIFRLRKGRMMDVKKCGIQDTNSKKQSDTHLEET

B1: CLDN18L-G15-pdl1a (bispecific antibody)
heavy: not shown
light: DIVMTQSPLSLPVTPGEPASISCKSSQTLLNSGNQKNYLTWYLQKPGQSPQLLIYWASTGESGVPDRFSGSGSGTDFTLKISRVEAEDVGVYYCQNAYFYPFTFGGGTKVEIKRTVAAPSVFIFPPSDEQLKSGTASVVCLLNNFYPREAKVQWKVDNALQSGNSQESVTEQDSKDSTYSLSSTLTLSKADYEKHKVYACEVTHQGLSSPVTKSFNRGECGGGGSGGGGSGGGGSEVQLVESGGGLVQPGGSLRLSCAASGRTFVTYGMGWFRQAPGKGREFVSAISWSGSMTSYGDSVKGRFTISRDNAKNTLYLQMNSLRPEDTAVYYCAAALGAVVYTTREPYTYWGQGTLVTVSS
A word on the EC50: it is the concentration giving half of the maximal effect. Read a low EC50 as an effect from little substance. As for B1, the values for the EC50 in the experiment with human PD-L1 [1] and with human PD-L1 [2] were 0.404 nM and 0.456 nM, respectively.

B2: CLDN18L-G12-pdl1a (bispecific antibody)
heavy: not shown
light: DIVMTQSPLSLPVTPGEPASISCKSSQTLLNSGNQKNYLTWYLQKPGQSPQLLIYWASTGESGVPDRFSGSGSGTDFTLKISRVEAEDVGVYYCQNAYFYPFTFGGGTKVEIKRTVAAPSVFIFPPSDEQLKSGTASVVCLLNNFYPREAKVQWKVDNALQSGNSQESVTEQDSKDSTYSLSSTLTLSKADYEKHKVYACEVTHQGLSSPVTKSFNRGECGGGGSGGGGSGSEVQLVESGGGLVQPGGSLRLSCAASGRTFVTYGMGWFRQAPGKGREFVSAISWSGSMTSYGDSVKGRFTISRDNAKNTLYLQMNSLRPEDTAVYYCAAALGAVVYTTREPYTYWGQGTLVTVSS
Take B2: a half-maximal response in the experiment with human PD-L1 [1] (EC50) required 0.808 nM. In other words, the sub-nanomolar range.

B3: pdl1a-G15-CLDN18L (bispecific antibody)
heavy: not shown
light: EVQLVESGGGLVQPGGSLRLSCAASGRTFVTYGMGWFRQAPGKGREFVSAISWSGSMTSYGDSVKGRFTISRDNAKNTLYLQMNSLRPEDTAVYYCAAALGAVVYTTREPYTYWGQGTLVTVSSGGGGSGGGGSGGGGSDIVMTQSPLSLPVTPGEPASISCKSSQTLLNSGNQKNYLTWYLQKPGQSPQLLIYWASTGESGVPDRFSGSGSGTDFTLKISRVEAEDVGVYYCQNAYFYPFTFGGGTKVEIKRTVAAPSVFIFPPSDEQLKSGTASVVCLLNNFYPREAKVQWKVDNALQSGNSQESVTEQDSKDSTYSLSSTLTLSKADYEKHKVYACEVTHQGLSSPVTKSFNRGEC
B3 gave an EC50 with human PD-L1 [1] of 0.147 nM.

B4: pdl1a-G12-CLDN18L (bispecific antibody)
heavy: not shown
light: EVQLVESGGGLVQPGGSLRLSCAASGRTFVTYGMGWFRQAPGKGREFVSAISWSGSMTSYGDSVKGRFTISRDNAKNTLYLQMNSLRPEDTAVYYCAAALGAVVYTTREPYTYWGQGTLVTVSSGGGGSGGGGSGSDIVMTQSPLSLPVTPGEPASISCKSSQTLLNSGNQKNYLTWYLQKPGQSPQLLIYWASTGESGVPDRFSGSGSGTDFTLKISRVEAEDVGVYYCQNAYFYPFTFGGGTKVEIKRTVAAPSVFIFPPSDEQLKSGTASVVCLLNNFYPREAKVQWKVDNALQSGNSQESVTEQDSKDSTYSLSSTLTLSKADYEKHKVYACEVTHQGLSSPVTKSFNRGEC
On to B4, for which the response in the experiment with human PD-L1 [1] was half-maximal at 0.0898 nM (EC50).

B5: pdl1a-E-CLDN18L (bispecific antibody)
heavy: not shown
light: EVQLVESGGGLVQPGGSLRLSCAASGRTFVTYGMGWFRQAPGKGREFVSAISWSGSMTSYGDSVKGRFTISRDNAKNTLYLQMNSLRPEDTAVYYCAAALGAVVYTTREPYTYWGQGTLVTVSSEPKSSDKTHTSPPSPDIVMTQSPLSLPVTPGEPASISCKSSQTLLNSGNQKNYLTWYLQKPGQSPQLLIYWASTGESGVPDRFSGSGSGTDFTLKISRVEAEDVGVYYCQNAYFYPFTFGGGTKVEIKRTVAAPSVFIFPPSDEQLKSGTASVVCLLNNFYPREAKVQWKVDNALQSGNSQESVTEQDSKDSTYSLSSTLTLSKADYEKHKVYACEVTHQGLSSPVTKSFNRGEC
As for B5, the EC50 with human PD-L1 [1] amounted to 0.107 nM; with human PD-L1 [2], 0.131 nM.

B6: CLDN18H-E-pdl1b (bispecific antibody)
heavy: not shown
light: DIVMTQSPLSLPVTPGEPASISCKSSQTLLNSGNQKNYLTWYLQKPGQSPQLLIYWASTGESGVPDRFSGSGSGTDFTLKISRVEAEDVGVYYCQNAYFYPFTFGGGTKVEIKRTVAAPSVFIFPPSDEQLKSGTASVVCLLNNFYPREAKVQWKVDNALQSGNSQESVTEQDSKDSTYSLSSTLTLSKADYEKHKVYACEVTHQGLSSPVTKSFNRGEC
As for B6, in the experiment with human PD-L1 [2], it took 0.296 nM to reach a half-maximal effect (EC50).

B7: CLDN18H-E-pdl1a (bispecific antibody)
heavy: not shown
light: B6 light
For B7, the EC50 with human PD-L1 [2] was found to be 1.46 nM.

B8: CLDN18H-E-pdl1c (bispecific antibody)
heavy: not shown
light: B6 light
Take B8: in the experiment with human PD-L1 [2], it took 0.317 nM to reach a half-maximal effect (EC50).

B9: pdl1a-G15-CLDN18H (bispecific antibody)
heavy: not shown
light: B6 light
As to B9, the EC50 with human PD-L1 [1] amounted to 0.134 nM.

B10: CLDN18H-G9-pdl1a (bispecific antibody)
heavy: not shown
light: B6 light
In the experiment with human PD-L1 [1], B10 displayed an EC50 of 0.111 nM.

B11: pdl1a-G12-CLDN18H (bispecific antibody)
heavy: not shown
light: B6 light
For B11, the EC50 in the experiment with human PD-L1 [1] stood at 0.0989 nM.

B12: CLDN18H-G12-pdl1a (bispecific antibody)
heavy: not shown
light: B6 light
For the molecule B12, the EC50 in the experiment with human PD-L1 [1] is 0.281 nM. This EC50 is about 2.8-fold higher than that of the molecule before.

B13: pdl1a-E-CLDN18H (bispecific antibody)
heavy: not shown
light: B6 light
Take B13: the EC50 with human PD-L1 [1] came out at 0.143 nM; in the experiment with human PD-L1 [2], 0.0745 nM.

B14: CLDN18H-G15-pdl1a (bispecific antibody)
heavy: not shown
light: B6 light
Regarding B14, the 50% effective concentration (EC50) with human PD-L1 [1] is 0.219 nM; with human PD-L1 [2] it was 0.525 nM.

B15: CLDN18L-E-pdl1b (bispecific antibody)
heavy: not shown
light: DIVMTQSPLSLPVTPGEPASISCKSSQTLLNSGNQKNYLTWYLQKPGQSPQLLIYWASTGESGVPDRFSGSGSGTDFTLKISRVEAEDVGVYYCQNAYFYPFTFGGGTKVEIKRTVAAPSVFIFPPSDEQLKSGTASVVCLLNNFYPREAKVQWKVDNALQSGNSQESVTEQDSKDSTYSLSSTLTLSKADYEKHKVYACEVTHQGLSSPVTKSFNRGECEPKSSDKTHTSPPSPEVQLVESGGGLVQPGGSLRLSCAASGRTFVTYGMGWFRQAPGKGREFVSAISWSGSSTSYGDSVKGRFTISRDNAKNTLYLQMNSLRPEDTAVYYCAAALGAVVYTTREPYTYWGQGTLVTVSS
In turn, B15 showed an EC50 in the experiment with human PD-L1 [2] of 0.516 nM.
